The record followed here is publication PMC5882242, “Functional roles of Mg^2+ binding sites in ion-dependent gating of a Mg^2+ channel, MgtE, revealed by solution NMR” (eLife, 2018).

This data set deals with the molecule itself. As to the kind of experiment: SEC; Superdex 200 GL 10/300; 20 mM HEPES-NaOH (pH 6.1), 100 mM NaCl, 1 mM DDM; BSA monomer, dimer and tetramer as standards; MgtE in DDM micelles. A general note: In gel filtration, larger molecules generally elute earlier.

B1: full-length MgtE from Thermus thermophilus (natural protein, UniProt Q5SMG8 1-450, looked up)
chain: MEEKLAVSLQEALQEGDTRALREVLEEIHPQDLLALWDELKGEHRYVVLTLLPKAKAAEVLSHLSPEEQAEYLKTLPPWRLREILEELSLDDLADALQAVRKEDPAYFQRLKDLLDPRTRAEVEALARYEEDEAGGLMTPEYVAVREGMTVEEVLRFLRRAAPDAETIYYIYVVDEKGRLKGVLSLRDLIVADPRTRVAEIMNPKVVYVRTDTDQEEVARLMADYDFTVLPVVDEEGRLVGIVTVDDVLDVLEAEATEDIHKLGAVDVPDLVYSEAGPVALWLARVRWLVILILTGMVTSSILQGFESVLEAVTALAFYVPVLLGTGGNTGNQSATLIIRALATRDLDLRDWRRVFLKEMGVGLLLGLTLSFLLVGKVYWDGHPLLLPVVGVSLVLIVFFANLVGAMLPFLLRRLGVDPALVSNPLVATLSDVTGLLIYLSVARLLLEAV
notes: MgtE, Mg2+ channel of Thermus thermophilus, full length (residues 1-450: cytoplasmic region 1-263, transmembrane region 264-450); plasmid with N-terminal His x 6 tag and HRV-3C protease recognition site; Dimer in DDM micelles by SEC; theoretical M.W. 50 kDa a subunit; The construct is described in Hattori et al., 2007a; also called wild-type MgtE; WT; source: E. coli C41 (DE3), solubilized in …
In general, stoichiometry N refers to a count of units in the complex or per binding partner. In the case of B1, the “stoichiometry N” value stood at 2.
